Key:
[1] = target: GST-fused eIF4B (GST gene fused to the N-terminus), cell-free synthesized (UniProt P23588)
[2] = target: GST-fused stress-induced phosphoprotein 1 (STIP1) (GST gene fused to the N-terminus), cell-free synthesized (UniProt P31948)

Sequence of GST-fused eIF4B (GST gene fused to the N-terminus), cell-free synthesized (P23588 whole entry, the tested form may be a part): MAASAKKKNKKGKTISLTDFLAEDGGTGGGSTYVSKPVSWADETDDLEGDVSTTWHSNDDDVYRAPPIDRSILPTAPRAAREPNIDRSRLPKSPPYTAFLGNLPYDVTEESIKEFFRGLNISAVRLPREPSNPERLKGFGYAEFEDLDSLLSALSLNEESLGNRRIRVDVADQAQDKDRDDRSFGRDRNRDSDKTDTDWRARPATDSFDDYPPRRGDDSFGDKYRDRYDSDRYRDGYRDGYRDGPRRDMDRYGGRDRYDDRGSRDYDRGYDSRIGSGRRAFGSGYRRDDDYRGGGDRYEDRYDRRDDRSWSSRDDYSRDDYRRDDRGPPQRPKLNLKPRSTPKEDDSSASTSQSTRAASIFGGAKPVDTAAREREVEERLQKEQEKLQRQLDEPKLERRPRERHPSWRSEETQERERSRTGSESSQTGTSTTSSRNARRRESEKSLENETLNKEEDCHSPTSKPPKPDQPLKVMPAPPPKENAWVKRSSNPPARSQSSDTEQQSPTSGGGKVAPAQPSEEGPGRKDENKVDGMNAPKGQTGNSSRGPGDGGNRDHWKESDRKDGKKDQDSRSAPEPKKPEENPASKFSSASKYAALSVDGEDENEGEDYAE

human CaMKIIδ protein (calmodulin kinase II delta), synthesized in a wheat embryo cell-free protein synthesis system
in vitro phosphorylation assay ([γ-32P]ATP, GST-fused substrate on glutathione resin, SDS-PAGE autoradiography) [1]: there was reproduced the reaction in which GST-fused eIF4B and STIP1 were phosphorylated by CaMKIIδ | in vitro phosphorylation assay ([γ-32P]ATP, GST-fused substrate on glutathione resin, SDS-PAGE autoradiography) [2]: there was reproduced the reaction in which GST-fused eIF4B and STIP1 were phosphorylated by CaMKIIδ

From patent US20070134734
